Test results published in publication PMC6323126, “Architecture, substructures, and dynamic assembly of STRIPAK complexes in Hippo signaling” (Cell Discovery, 2019).

T1: MST2 (recombinant, wildtype) (human, UniProt Q13188 1-491)
T1 construct: MST2 (STK3), human; also called STK3; Hippo kinase MST2; source: E. coli BL21 (DE3) CodonPlus, purified
T1 sequence (looked up): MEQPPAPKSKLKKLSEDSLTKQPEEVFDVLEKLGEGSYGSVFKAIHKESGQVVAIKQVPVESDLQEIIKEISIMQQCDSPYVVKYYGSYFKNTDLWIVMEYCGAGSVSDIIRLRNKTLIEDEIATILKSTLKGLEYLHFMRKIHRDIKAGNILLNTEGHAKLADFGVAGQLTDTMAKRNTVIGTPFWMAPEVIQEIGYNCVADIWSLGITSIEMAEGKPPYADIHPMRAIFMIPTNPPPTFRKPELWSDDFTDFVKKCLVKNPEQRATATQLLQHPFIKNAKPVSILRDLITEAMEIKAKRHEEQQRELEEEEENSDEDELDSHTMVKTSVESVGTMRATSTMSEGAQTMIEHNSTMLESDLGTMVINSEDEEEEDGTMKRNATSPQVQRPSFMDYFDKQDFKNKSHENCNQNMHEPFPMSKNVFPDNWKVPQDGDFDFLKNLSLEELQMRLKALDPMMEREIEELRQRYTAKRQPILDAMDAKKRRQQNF

T2: MST2 kinase domain (residues 1–308) (human, UniProt Q13188 1-308)
T2 construct: also called kinase domain of MST2; source: E. coli BL21 (DE3) CodonPlus, purified
T2 sequence (looked up): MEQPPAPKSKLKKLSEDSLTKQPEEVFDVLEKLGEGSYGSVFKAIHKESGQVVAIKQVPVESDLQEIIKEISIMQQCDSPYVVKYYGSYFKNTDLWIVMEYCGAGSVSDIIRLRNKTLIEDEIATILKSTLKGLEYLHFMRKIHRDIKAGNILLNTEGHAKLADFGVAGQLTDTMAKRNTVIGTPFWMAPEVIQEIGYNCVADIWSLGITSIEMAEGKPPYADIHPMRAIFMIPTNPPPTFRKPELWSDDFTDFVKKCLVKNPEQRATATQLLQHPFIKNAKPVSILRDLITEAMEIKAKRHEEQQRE

T3: SIKE1 CC1 (residues 5–65) (human, UniProt Q9BRV8 5-65)
T3 construct: SIKE1, human, residues 5-65; Homodimer within the 2:2 crystal complex; also called residues 5–65 of SIKE1; source: E. coli BL21 (DE3) CodonPlus, purified
T3 sequence (looked up): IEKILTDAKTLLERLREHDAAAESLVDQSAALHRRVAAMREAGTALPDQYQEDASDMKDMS


Tests used:
[1] = target: T1, MST2 (recombinant, wildtype); experiment: pull-down; pulldown with purified recombinant proteins shown in supplementary figures; whether GST or MBP and who carried the tag not told; conditions: both partners purified
MST4 (recombinant) = target: T4, MST4 (recombinant) (human, UniProt Q9P289 1-416); experiment: as above; conditions: both partners purified
T4 construct: MST4 (STK26), human; also called STK26; source: E. coli BL21 (DE3) CodonPlus, purified
T4 sequence (Q9P289 whole entry): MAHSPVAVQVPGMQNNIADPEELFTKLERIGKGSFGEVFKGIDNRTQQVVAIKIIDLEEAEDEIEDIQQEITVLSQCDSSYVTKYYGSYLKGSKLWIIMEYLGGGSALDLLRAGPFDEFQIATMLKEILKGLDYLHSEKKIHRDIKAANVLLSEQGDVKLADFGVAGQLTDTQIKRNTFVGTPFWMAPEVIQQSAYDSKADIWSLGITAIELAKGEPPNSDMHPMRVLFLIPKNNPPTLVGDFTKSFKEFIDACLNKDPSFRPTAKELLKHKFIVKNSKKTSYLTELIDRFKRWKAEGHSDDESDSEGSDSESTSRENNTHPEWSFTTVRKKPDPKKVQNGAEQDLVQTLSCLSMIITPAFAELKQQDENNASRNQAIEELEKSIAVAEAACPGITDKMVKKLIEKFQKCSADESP

[2] = target: T5, MST4 kinase domain (residues 1–300) (human, UniProt Q9P289 1-300); experiment: as above; conditions: both partners purified
T5 construct: MST4 (STK26), human, residues 1-300; also called N-terminal kinase domain of MST4; source: E. coli BL21 (DE3) CodonPlus, purified
T5 sequence (Q9P289 1-300): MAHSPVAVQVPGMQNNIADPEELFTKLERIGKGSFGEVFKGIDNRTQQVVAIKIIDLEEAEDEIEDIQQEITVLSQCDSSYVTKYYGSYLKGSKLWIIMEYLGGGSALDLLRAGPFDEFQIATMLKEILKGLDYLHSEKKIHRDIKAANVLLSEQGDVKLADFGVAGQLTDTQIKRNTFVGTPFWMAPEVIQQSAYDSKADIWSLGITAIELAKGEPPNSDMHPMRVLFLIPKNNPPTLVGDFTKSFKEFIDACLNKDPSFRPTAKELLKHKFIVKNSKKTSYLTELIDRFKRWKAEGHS

[3] = target: T2, MST2 kinase domain (residues 1–308); experiment: pull-down; GST pulldown: GST-tagged protein, partner and glutathione Sepharose mixed at 4 °C for 1 h in 20 mM HEPES (pH 7.5), 100 mM NaCl; eluted with 20 mM reduced glutathione; SDS-PAGE, Coomassie staining; conditions: both partners purified
[4] = target: the molecule itself; experiment: crystal structure; SIKE1 CC1-SLMAP CC1 complex reconstituted 1:1 and gel-filtered, 2.3 Å; 0.1 M sodium citrate (pH 5.5), 15% PEG 6000, 16 °C
[5] = target: T3, SIKE1 CC1 (residues 5–65); experiment: as above; conditions: both partners purified
[6] = target: T3, SIKE1 CC1 (residues 5–65); experiment: not stated; Kd of the minimal regions, Supplementary Fig. S7c; method not given; conditions: both partners purified

Binder | binding result [1] | binding result (MST4 (recombinant)) | binding result [2] | binding result [3] | stoichiometry N [4] | stoichiometry N [5] | Kd [6]
FHA domain (residues 5–135) of SLMAP (domain or fragment, human, UniProt Q14BN4 5-135, looked up, also called SLMAP (FHA); SLMAP FHA domain; source: E. coli BL21 (DE3) CodonPlus, purified) LAIFTCRPNSHPFQERHVYLDEPIKIGRSVARCRPAQNNATFDCKVLSRNHALVWFDHKTGKFYLQDTKSSNGTFINSQRLSRGSEESPPCEILSGDIIQFGVDVTENTRKVTHGCIVSTIKLFLPDGMEA | binds | binds | binds | binds | – | – | –
SLMAP CC1 (residues 167–226) (domain or fragment, human, UniProt Q14BN4 167-226, looked up, Homodimer within the 2:2 crystal complex; source: E. coli BL21 (DE3) CodonPlus, purified) QLSQYLQEALHREQMLEQKLATLQRLLAITQEASDTSWQALIDEDRLLSRLEVMGNQLQA | – | – | – | – | 2 | 1 SIKE1 CC1 per SLMAP CC1 (2:2) | 6.9 µM
